Test results reported in the supplement of paper PMC9112550, “Optimization of the antimicrobial peptide Bac7 by deep mutational scanning” (BMC Biology, 2022).

Test system: Escherichia coli TOP10
Assay: shrunken log2 fold change of peptide-encoding DNA abundance (4.5 h post-induction vs induction); higher = less antimicrobial activity (less host growth inhibition)
Details: time post-induction: 4.5 h; library: site-saturation at positions 5, 18, 19, 20
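Also: peptides expressed intracellularly from a pBAD plasmid library in pooled LB shake-flask culture, induced with 0.3% L-arabinose, DNA abundance read by NGS, three biological replicates, DESeq2 with apeglm shrinkage.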

## RRIRPRPPRLPRPRPRPGADPRP
  shrunken log2 fold change: 0.407

## RRIRGRPPRLPRPRPRPVDIPRP
  shrunken log2 fold change: 0.183

## RRIRTRPPRLPRPRPRPVSPPRP
  shrunken log2 fold change: -0.194

## RRIRSRPPRLPRPRPRPWVKPRP
  shrunken log2 fold change: 0.194

## RRIRLRPPRLPRPRPRPSAFPRP
  shrunken log2 fold change: -0.181

## RRIRARPPRLPRPRPRPILFPRP
  shrunken log2 fold change: -0.166

## RRIRRRPPRLPRPRPRPMNAPRP
  shrunken log2 fold change: 0.15

## RRIRTRPPRLPRPRPRPSKVPRP
  shrunken log2 fold change: -0.0295

## RRIRFRPPRLPRPRPRPDNLPRP
  shrunken log2 fold change: 0.0632

## RRIRPRPPRLPRPRPRPENDPRP
  shrunken log2 fold change: -0.0164

## RRIRSRPPRLPRPRPRPYRLPRP
  shrunken log2 fold change: -0.279

## RRIRSRPPRLPRPRPRPGHAPRP
  shrunken log2 fold change: 0.205

## RRIRARPPRLPRPRPRPYKRPRP
  shrunken log2 fold change: -0.23

## RRIRRRPPRLPRPRPRPGFMPRP
  shrunken log2 fold change: 0.252

## RRIRQRPPRLPRPRPRPFTQPRP
  shrunken log2 fold change: -0.0608

## RRIRARPPRLPRPRPRPQCRPRP
  shrunken log2 fold change: -0.161

## RRIRSRPPRLPRPRPRPFMVPRP
  shrunken log2 fold change: -0.337

## RRIRRRPPRLPRPRPRPFVCPRP
  shrunken log2 fold change: 0.191

## RRIRNRPPRLPRPRPRPICAPRP
  shrunken log2 fold change: 0.0914

## RRIRHRPPRLPRPRPRPGNDPRP
  shrunken log2 fold change: -0.583

## RRIRIRPPRLPRPRPRPVELPRP
  shrunken log2 fold change: -0.0129

## RRIRRRPPRLPRPRPRPTWRPRP
  shrunken log2 fold change: 0.667

## RRIRGRPPRLPRPRPRPLNRPRP
  shrunken log2 fold change: 0.33

## RRIRCRPPRLPRPRPRPCRMPRP
  shrunken log2 fold change: -0.317

## RRIRVRPPRLPRPRPRPDWWPRP
  shrunken log2 fold change: -0.0161

## RRIRKRPPRLPRPRPRPFEEPRP
  shrunken log2 fold change: 0.148

## RRIRHRPPRLPRPRPRPDSHPRP
  shrunken log2 fold change: -0.0191

## RRIRWRPPRLPRPRPRPIFNPRP
  shrunken log2 fold change: -0.217

## RRIRGRPPRLPRPRPRPYQVPRP
  shrunken log2 fold change: 0.174

## RRIRLRPPRLPRPRPRPRYRPRP
  shrunken log2 fold change: -0.374

## RRIRSRPPRLPRPRPRPNGDPRP
  shrunken log2 fold change: -0.0155

## RRIRDRPPRLPRPRPRPNYHPRP
  shrunken log2 fold change: -0.359

## RRIRPRPPRLPRPRPRPSPDPRP
  shrunken log2 fold change: 0.146

## RRIRYRPPRLPRPRPRPNEGPRP
  shrunken log2 fold change: -0.363

## RRIRYRPPRLPRPRPRPGCCPRP
  shrunken log2 fold change: -0.309

## RRIRFRPPRLPRPRPRPGQPPRP
  shrunken log2 fold change: 0.199

## RRIRKRPPRLPRPRPRPRSLPRP
  shrunken log2 fold change: -0.00364

## RRIRYRPPRLPRPRPRPAYLPRP
  shrunken log2 fold change: -0.244

## RRIRRRPPRLPRPRPRPATLPRP
  shrunken log2 fold change: 0.332

## RRIRPRPPRLPRPRPRPFKMPRP
  shrunken log2 fold change: -0.384

## RRIRHRPPRLPRPRPRPKLWPRP
  shrunken log2 fold change: 0.392

## RRIRYRPPRLPRPRPRPAGRPRP
  shrunken log2 fold change: 0.104

## RRIRERPPRLPRPRPRPSFTPRP
  shrunken log2 fold change: -1.03

## RRIRIRPPRLPRPRPRPYVSPRP
  shrunken log2 fold change: -0.518

## RRIRGRPPRLPRPRPRPYLLPRP
  shrunken log2 fold change: -0.407

## RRIRCRPPRLPRPRPRPGENPRP
  shrunken log2 fold change: 0.0862

## RRIRQRPPRLPRPRPRPLKGPRP
  shrunken log2 fold change: -0.272

## RRIRLRPPRLPRPRPRPDAFPRP
  shrunken log2 fold change: 0.0575

## RRIRRRPPRLPRPRPRPAQNPRP
  shrunken log2 fold change: 0.398

## RRIRNRPPRLPRPRPRPCCLPRP
  shrunken log2 fold change: -0.219

## RRIRARPPRLPRPRPRPGGRPRP
  shrunken log2 fold change: 0.525

## RRIRTRPPRLPRPRPRPYYNPRP
  shrunken log2 fold change: -0.719

## RRIRQRPPRLPRPRPRPDFPPRP
  shrunken log2 fold change: 0.065

## RRIRVRPPRLPRPRPRPKDDPRP
  shrunken log2 fold change: 0.0252

## RRIRCRPPRLPRPRPRPEYGPRP
  shrunken log2 fold change: -0.167

## RRIRERPPRLPRPRPRPLIHPRP
  shrunken log2 fold change: -0.522

## RRIRSRPPRLPRPRPRPCVNPRP
  shrunken log2 fold change: -0.0338

## RRIRMRPPRLPRPRPRPMREPRP
  shrunken log2 fold change: 0.279

## RRIRRRPPRLPRPRPRPIMSPRP
  shrunken log2 fold change: -0.0839

## RRIRTRPPRLPRPRPRPWRRPRP
  shrunken log2 fold change: 0.496

## RRIRSRPPRLPRPRPRPFTLPRP
  shrunken log2 fold change: -0.163

## RRIRQRPPRLPRPRPRPFNGPRP
  shrunken log2 fold change: -0.3

## RRIRFRPPRLPRPRPRPWYSPRP
  shrunken log2 fold change: -0.0415

## RRIRTRPPRLPRPRPRPFTIPRP
  shrunken log2 fold change: -0.293

## RRIRHRPPRLPRPRPRPPREPRP
  shrunken log2 fold change: 0.204

## RRIRHRPPRLPRPRPRPLWIPRP
  shrunken log2 fold change: -0.505

## RRIRVRPPRLPRPRPRPRINPRP
  shrunken log2 fold change: -0.07

## RRIRTRPPRLPRPRPRPERRPRP
  shrunken log2 fold change: 0.0791

## RRIRDRPPRLPRPRPRPTQLPRP
  shrunken log2 fold change: -0.0815

## RRIRGRPPRLPRPRPRPLQLPRP
  shrunken log2 fold change: 0.447

## RRIRPRPPRLPRPRPRPMISPRP
  shrunken log2 fold change: -0.098

## RRIRPRPPRLPRPRPRPNLSPRP
  shrunken log2 fold change: -0.168

## RRIRCRPPRLPRPRPRPFYDPRP
  shrunken log2 fold change: -0.826

## RRIRERPPRLPRPRPRPSNFPRP
  shrunken log2 fold change: -0.909

## RRIRRRPPRLPRPRPRPNTYPRP
  shrunken log2 fold change: -0.336

## RRIRFRPPRLPRPRPRPRGAPRP
  shrunken log2 fold change: 0.493

## RRIRSRPPRLPRPRPRPKWFPRP
  shrunken log2 fold change: -0.0561

## RRIRQRPPRLPRPRPRPLEPPRP
  shrunken log2 fold change: -0.227

## RRIRCRPPRLPRPRPRPFYMPRP
  shrunken log2 fold change: -1.15

## RRIRQRPPRLPRPRPRPYKSPRP
  shrunken log2 fold change: -0.248

## RRIRIRPPRLPRPRPRPSVEPRP
  shrunken log2 fold change: -0.947

## RRIRERPPRLPRPRPRPTFHPRP
  shrunken log2 fold change: -0.0533

## RRIRDRPPRLPRPRPRPKIWPRP
  shrunken log2 fold change: 0.127

## RRIRSRPPRLPRPRPRPCQEPRP
  shrunken log2 fold change: -0.0101

## RRIRYRPPRLPRPRPRPMKDPRP
  shrunken log2 fold change: -0.317

## RRIRIRPPRLPRPRPRPMMFPRP
  shrunken log2 fold change: -0.0225

## RRIRIRPPRLPRPRPRPYSGPRP
  shrunken log2 fold change: 0.00727

## RRIRWRPPRLPRPRPRPVATPRP
  shrunken log2 fold change: 0.991

## RRIRQRPPRLPRPRPRPMNRPRP
  shrunken log2 fold change: -0.275

## RRIRTRPPRLPRPRPRPFTSPRP
  shrunken log2 fold change: -0.0603

## RRIRMRPPRLPRPRPRPTPGPRP
  shrunken log2 fold change: 1.13
